Experimental data reported in publication doi:10.1101/638320, “Analyzing the weak dimerization of a cellulose binding module by sedimentation velocity experiments” (bioRxiv, 2019).

Columns and labels:
[1] = molecular target: the molecule itself; assay: AUC; loading concentration 0.50 mg/mL (27.07 uM)
[2] = molecular target: the molecule itself; assay: AUC; sedimentation velocity, absorbance at 280 nm, 50 000 rpm, 20 °C, PBS (137 mM NaCl, 2.7 mM KCl, 10 mM Na2HPO4, 1.8 mM KH2PO4, pH 7.35), 0.05 to 0.7 g/L; UltraScan III (2DSA, GA, GAMC, van Holde-Weischet; KD by discrete model genetic algorithm); dimer to monomers
[3] = molecular target: the molecule itself; assay: AUC; loading concentration 0.70 mg/mL (37.90 uM)

B1: CBM_(CipA), cellulose binding module of the cellulosome anchoring protein CipA (domain or fragment, Clostridium thermocellum)
chain: MGNLKVEFYNSNPSDTTNSINPQFKVTNTGSSAIDLSKLTLRYYYTVDGQKDQTFWCDHAAIIGSNGSYNGITSNVKGTFVKMSSSTNNADTYLEISFTGGTLEPGAHVQIQGRFAKNDWSNYTQSNDYSFKSASQFVEWDQVTAYLNGVLVWGKEPLE
notes: abstract: Clostridium thermocellum, introduction: Cellulomonas fimi; differs from PDB 1NBC by the polyHis tag and two amino acids at the beginning and the end; Calculated monomer mass 18469 Da; Gene codon optimised for E. coli, in a modified pET28a(+); also called CMB_(CipA); source: E. coli BL21 (DE3), purified (heating to 70 °C, IMAC on HisTrap, desalting); not shown: His6, C-terminal, kept
With B1 the Kd [1] was 93.9 µM, the Kd [2] was ~87 µM and the “stoichiometry N” value [2] was 2. The Kd [3] was 80.5 µM.
